Test results reported in patent US11535650 (RA PHARMACEUTICALS, dated 2022).
Starred links: 1 amine or outer side, 2 acyl side, 3 side chain; linkers in the order of their positions; H or OH if unused. Positions of bridges follow the written chain, without caps; N, C: chain ends. Non-standard residues stand in square brackets, D forms with d. Primed or numbered codes have the meaning given here. No end group written: not given here. *: point of attachment. Lys‑C8 = N-ε-caprylic lysine, CCCCCCCC(=O)NCCCC[C@H](N[*:1])C(=O)[*:2]; mXylyl(3) = bridging moiety between the two residues given in brackets; mXylyl″ = bridging moiety between the two marked residues; mXylyl = bridging moiety between residues (mXylyl(i,j)); Ala(1H-tetrazol-5-yl) = N[C@@H](Cc1nnn[nH]1)C(=O)O; Trp(7-aza) = N[C@@H](Cc1c[nH]c2ncccc12)C(=O)O; NMeD = CN[C@@H](CC(=O)O)C(=O)O; dPhg = N[C@@H](C(=O)O)c1ccccc1; Chg = N[C@H](C(=O)O)C1CCCCC1; Phg = N[C@H](C(=O)O)c1ccccc1; Tle = CC(C)(C)[C@H](N)C(=O)O; Lys‑C12 = N-ε-lauryl lysine; NMeS = CN[C@@H](CO)C(=O)O; Heptanoyl = CCCCCCC(=O)*; Pra = C#CC[C@H](N)C(=O)O; Nva = CCC[C@H](N)C(=O)O; Sar = CNCC(=O)O

B1: R3156 (peptide)
peptide: Ac-CVERACD[Tle]Y[Trp(7-aza)]EYP[dPhg][Nva]-NH2
modifications: linker 1-6 via mXylyl″
B2: R3141 (peptide)
peptide: Ac-CVERFCDVYWEFP-NH2
modifications: linker 1-6 via mXylyl″
B3: R3162 (peptide)
peptide: Ac-CAERFCD[Tle]Y[Trp(7-aza)]EYP[dPhg]K-NH2
modifications: linker 1-6 via mXylyl″
B4: R3164 (peptide)
peptide: Ac-CAERFCD[Tle]Y[Trp(7-aza)]EYP[Phg][Lys‑C12]-NH2
modifications: linker 1-6 via mXylyl″
B5: R3138 (peptide)
peptide: Ac-CVERFCD[Tle]YWEF-NH2
modifications: linker 1-6 via mXylyl″
B6: R3020 (peptide)
peptide: MCSERYCEVRWEY-NH2
modifications: linker 2-7 via mXylyl
B7: R3140 (peptide)
peptide: Ac-CVERFCDVYWEYP-NH2
modifications: linker 1-6 via mXylyl″
B8: R3168 (peptide)
peptide: Ac-CVERFC[Ala(1H-tetrazol-5-yl)][Tle]Y[Trp(7-aza)]EYP[Chg][Nva]-NH2
modifications: linker 1-6 via mXylyl(3)
B9: R3147 (peptide)
peptide: Ac-CVERFCDVYWEF[Pra]-NH2
modifications: linker 1-6 via mXylyl″
B10: R3016 (peptide)
peptide: Ac-C[Tle]Y[Trp(7-aza)]EY[NMeS]HC-NH2
modifications: linker 1-9 via mXylyl
B11: R3172 (peptide)
peptide: Ac-CVERFC[NMeD][Tle]Y[Trp(7-aza)]EYP[Chg][Nva]-NH2
modifications: linker 1-6 via mXylyl″
B12: R3001 (peptide)
peptide: Ac-[Nva]CYEN[Tle]Y[Trp(7-aza)]EY[Sar][Nva][NMeS]-NH2
SMILES: CCC[C@H](NC(C)=O)C(=O)N[C@@H](CS)C(=O)N[C@@H](Cc1ccc(O)cc1)C(=O)N[C@@H](CCC(=O)O)C(=O)N[C@@H](CC(N)=O)C(=O)N[C@H](C(=O)N[C@@H](Cc1ccc(O)cc1)C(=O)N[C@@H](Cc1c[nH]c2ncccc12)C(=O)N[C@@H](CCC(=O)O)C(=O)N[C@@H](Cc1ccc(O)cc1)C(=O)N(C)CC(=O)N[C@@H](CCC)C(=O)N(C)[C@@H](CO)C(N)=O)C(C)(C)C
B13: R3019 (peptide)
peptide: Ac-[Nva]CYEN[Tle]Y[Trp(7-aza)]EYP[Phg][Nva]C-NH2
modifications: linker 2-14 via mXylyl
B14: R3032 (peptide)
peptide: Ac-[Nva]CAT[Trp(7-aza)]EY[NMeS]HC[Nva]-NH2
modifications: linker 2-10 via mXylyl
B15: R3015 (peptide)
peptide: Ac-C[Phg]T[Trp(7-aza)]EY[NMeS]HC-NH2
modifications: linker 1-9 via mXylyl
B16: R3148 (peptide)
peptide: Ac-CAERFCD[Tle]YWEYP[Phg][Nva]-NH2
modifications: linker 1-6 via mXylyl″
B17: R3135 (peptide)
peptide: Ac-[Nva]C[Phg]T[Trp(7-aza)]EY[NMeS][dA]C[Nva]-NH2
modifications: linker 2-10 via mXylyl″
B18: R3033 (peptide)
peptide: Ac-[Nva]C[Phg]A[Trp(7-aza)]EY[NMeS]HC[Nva]-NH2
modifications: linker 2-10 via mXylyl
B19: R3157 (peptide)
peptide: Ac-CVERFCA[Tle]Y[Trp(7-aza)]EYP[Phg][Nva]-NH2
modifications: linker 1-6 via mXylyl″
B20: R3146 (peptide)
peptide: Ac-C[Tle]ERFCDVYWEF-NH2
modifications: linker 1-6 via mXylyl″
B21: R3022 (peptide)
peptide: Ac-[Nva]C[Phg]T[Trp(7-aza)]EY[NMeS]HC[Nva]P[Nva]-NH2
modifications: cysteine pairing not given here
B22: R3161 (peptide)
peptide: Ac-CAERFCD[Tle]Y[Trp(7-aza)]EYP[Phg]K-NH2
modifications: linker 1-6 via mXylyl″
B23: R3154 (peptide)
peptide: Ac-CVEAFCD[Tle]Y[Trp(7-aza)]EYP[dPhg][Nva]-NH2
modifications: linker 1-6 via mXylyl″
B24: R3136 (peptide)
peptide: Heptanoyl-[Nva]C[dPhg]T[Trp(7-aza)]EY[NMeS]AC[Nva]-NH2
modifications: linker 2-10 via mXylyl″; not fully specified; printed as [mXylyl(2,10)]heptanoyl-Nvl-C-(D-Phg)-T-azaTrp-E-Y-(N-Me)S-A-C-Nvl-NH2
B25: R3013 (peptide)
peptide: Ac-[Nva]C[Phg]T[Trp(7-aza)]EY[NMeS]HC-NH2
modifications: linker 2-10 via mXylyl
B26: R3155 (peptide)
peptide: Ac-CVERACD[Tle]Y[Trp(7-aza)]EYP[Phg][Nva]-NH2
modifications: linker 1-6 via mXylyl″
B27: R3031 (peptide)
peptide: Ac-AC[Phg]T[Trp(7-aza)]EY[NMeS]HC[Nva]-NH2
modifications: linker 2-10 via mXylyl
B28: R3158 (peptide)
peptide: Ac-CVERFCA[Tle]Y[Trp(7-aza)]EYP[dPhg][Nva]-NH2
modifications: linker 1-6 via mXylyl″
B29: R3018 (peptide)
peptide: Ac-[Nva]CYEN[Tle]Y[Trp(7-aza)]ECP[Phg][Nva]-NH2
modifications: linker 2-10 via mXylyl
B30: R3151 (peptide)
peptide: Ac-CVARFCD[Tle]Y[Trp(7-aza)]EYP[dPhg][Nva]-NH2
modifications: linker 1-6 via mXylyl″
B31: R3142 (peptide)
peptide: Ac-CVERFCDVY[Trp(7-aza)]EYP-NH2
modifications: linker 1-6 via mXylyl″
B32: R3034 (peptide)
peptide: Ac-[Nva]C[Phg]TAEY[NMeS]HC[Nva]-NH2
modifications: linker 2-10 via mXylyl
B33: R3028 (peptide)
peptide: Ac-[Tle]Y[Trp(7-aza)]EYP[Phg][Nva]-NH2
SMILES: CCC[C@H](NC(=O)[C@@H](NC(=O)[C@@H]1CCCN1C(=O)[C@H](Cc1ccc(O)cc1)NC(=O)[C@H](CCC(=O)O)NC(=O)[C@H](Cc1c[nH]c2ncccc12)NC(=O)[C@H](Cc1ccc(O)cc1)NC(=O)[C@@H](NC(C)=O)C(C)(C)C)c1ccccc1)C(N)=O
B34: R3017 (peptide)
peptide: Ac-[Nva]CYEN[Tle]YCEYP[Phg][Nva]-NH2
modifications: linker 2-8 via mXylyl
B35: R3139 (peptide)
peptide: Ac-C[Tle]ERFCD[Tle]YWEF-NH2
modifications: linker 1-6 via mXylyl″
B36: R3143 (peptide)
peptide: CVERFCDGYWEYP
modifications: [mXylyl(1,6)]Ac-C-V-E-R-F-C-D-Tbg-Y-W-E-Y-P-NH2
B37: R3149 (peptide)
peptide: Ac-CAERFCD[Tle]YWEYP[dPhg][Nva]-NH2
modifications: linker 1-6 via mXylyl″
B38: R3137 (peptide)
peptide: Heptanoyl-C[dPhg]T[Trp(7-aza)]EY[NMeS]AC[Nva]-NH2
modifications: linker 1-9 via mXylyl″; not fully specified; printed as [mXylyl(1,9)]heptanoyl-C-(D-Phg)-T-azaTrp-E-Y-(N-Me)S-A-C-Nvl-NH2
B39: R3166 (peptide)
peptide: Ac-CAERFCD[Tle]Y[Trp(7-aza)]EYP[Phg][Lys‑C8]-NH2
modifications: linker 1-6 via mXylyl″
B40: R3153 (peptide)
peptide: Ac-CVEAFCD[Tle]Y[Trp(7-aza)]EYP[Phg][Nva]-NH2
modifications: linker 1-6 via mXylyl″
B41: R3150 (peptide)
peptide: Ac-CVARFCD[Tle]Y[Trp(7-aza)]EYP[Phg][Nva]-NH2
modifications: linker 1-6 via mXylyl″

Target: human C5 protein (human, UniProt P01031 19-673; P01031 678-1676)
Test: cell-based or functional assay

Binder | Avg. IC50, human hemolysis assay (complete human sera) [nM]
B1 | > 10000
B2 | 24.5
B3 | 16.5
B4 | 36
B5 | 87.2
B6 | 24.6
B7 | 17.9
B8 | 7.5
B9 | 138
B10 | > 13000
B11 | 12
B12 | 67.2
B13 | 1320
B14 | > 10000
B15 | > 3960
B16 | 8.5
B17 | > 25000
B18 | 131
B19 | 84.5
B20 | 107
B21 | > 10200

Binder | Avg. IC50, human hemolysis assay (complete human sera) [nM]
B22 | 7
B23 | 592
B24 | > 50000
B25 | 344
B26 | 1530
B27 | 1090
B28 | 327
B29 | > 5730
B30 | 165
B31 | 44.6
B32 | > 50000
B33 | > 10000
B34 | > 100000
B35 | 97.2
B36 | 18.6
B37 | 13.6
B38 | > 100000
B39 | 17.5
B40 | 175
B41 | 32
